The values that follow are results of earlier work, collected in article PMC9776569.

Data set [1] deals with Asp20 (UniProt position 21, DVLKADGAILV). Particulars: redox state not stated in this article.
The target of data set [2] is Asp26 (UniProt position 27, GAILVDFWAEW). Particulars: redox state not stated in this article.
Data set [3] has as its target Cys32 (UniProt position 33, FWAEWCGPCKM). To be noted: reduced (free thiols at Cys-32 and Cys-35).
Data set [4] has as its target Cys35 (UniProt position 36, EWCGPCKMIAP). To be noted: reduced (free thiols at Cys-32 and Cys-35).
Data set [5] concerns the target His6 (UniProt position 7, SDKIIHLTDDS). To be noted: redox state not stated in this article.
Data set [6] addresses Nterm1 (UniProt position 2, ----MSDKIIH). To be noted: redox state not stated in this article.
For data set [7], the target named is Asp101 (UniProt position 119, KKIVSDGNGMN).
The target in data set [8] is Asp119 (UniProt position 137, RCKGTDVQAWI).
Data set [9] addresses Asp18 (UniProt position 36, KRHGLDNYRGY).
For data set [10], the target named is Asp48 (UniProt position 66, TNRNTDGSTDY).
The target in data set [11] is Asp52 (UniProt position 70, TDGSTDYGILQ).
In data set [12] the target is Asp66 (UniProt position 84, RWWCNDGRTPG).
Data set [13] deals with Asp87 (UniProt position 105, ALLSSDITASV).
Data set [14] addresses Cterm129 (UniProt position 147, IRGCRL-----).
Data set [15] has as its target Glu35 (UniProt position 53, CAAKFESNFNT).
Data set [16] has as its target Glu7 (UniProt position 25, VFGRCELAAAM).
Data set [17] deals with His15 (UniProt position 33, AAMKRHGLDNY).
Data set [18] concerns the target Lys1 (UniProt position 19, LAALGKVFGRC).
Data set [19] deals with Lys116 (UniProt position 134, WRNRCKGTDVQ).
The target in data set [20] is Lys13 (UniProt position 31, LAAAMKRHGLD).
The target in data set [21] is Lys33 (UniProt position 51, WVCAAKFESNF).
For data set [22], the target named is Lys96 (UniProt position 114, SVNCAKKIVSD).
In data set [23] the target is Lys97 (UniProt position 115, VNCAKKIVSDG).
Data set [24] addresses Nterm1 (UniProt position 19, LAALGKVFGRC).
Data set [25] has as its target Tyr20 (UniProt position 38, HGLDNYRGYSL).
In data set [26] the target is Tyr23 (UniProt position 41, DNYRGYSLGNW).
Data set [27] addresses Tyr53 (UniProt position 71, DGSTDYGILQI).
The target of data set [28] is Asp16 (UniProt position 16, FQEALDAAGDK). Particulars: redox state not stated in this article.
For data set [29], the target named is Asp20 (UniProt position 20, LDAAGDKLVVV). Particulars: redox state not stated in this article.
The target in data set [30] is Asp26 (UniProt position 26, KLVVVDFSATW). Particulars: redox state not stated in this article.
Data set [31] concerns the target Asp58 (UniProt position 58, IFLEVDVDDCQ). To be noted: redox state not stated in this article.
Data set [32] concerns the target Asp60 (UniProt position 60, LEVDVDDCQDV). To be noted: redox state not stated in this article.
Data set [33] deals with Asp61 (UniProt position 61, EVDVDDCQDVA). Particulars: redox state not stated in this article.
The target of data set [34] is Asp64 (UniProt position 64, VDDCQDVASEC). To be noted: redox state not stated in this article.
The target in data set [35] is Glu103 (UniProt position 103, EATINELV---). Particulars: redox state not stated in this article.
The target of data set [36] is Glu13 (UniProt position 13, KTAFQEALDAA). To be noted: redox state not stated in this article.
Data set [37] has as its target Glu47 (UniProt position 47, FHSLSEKYSNV). Particulars: redox state not stated in this article.
In data set [38] the target is Glu56 (UniProt position 56, NVIFLEVDVDD). To be noted: redox state not stated in this article.
Data set [39] addresses Glu6 (UniProt position 6, MVKQIESKTAF). To be noted: redox state not stated in this article.
Data set [40] addresses Glu68 (UniProt position 68, QDVASECEVKC). Particulars: redox state not stated in this article.
Data set [41] has as its target Glu70 (UniProt position 70, VASECEVKCMP). Particulars: redox state not stated in this article.
In data set [42] the target is Glu88 (UniProt position 88, GQKVGEFSGAN). To be noted: redox state not stated in this article.
Data set [43] concerns the target Glu95 (UniProt position 95, SGANKEKLEAT). Particulars: redox state not stated in this article.
The target of data set [44] is Glu98 (UniProt position 98, NKEKLEATINE). Particulars: redox state not stated in this article.
The target in data set [45] is Asp143 (UniProt position 225, NIWSEDNADSG).
Data set [46] deals with Asp146 (UniProt position 228, SEDNADSGQ--).
Data set [47] deals with Asp40 (UniProt position 122, RLLLVDTPETK).
Data set [48] has as its target Asp95 (UniProt position 177, AYIYADGKMVN).
The target in data set [49] is Glu10 (UniProt position 92, KKLHKEPATLI).
In data set [50] the target is Glu101 (UniProt position 183, GKMVNEALVRQ).
Data set [51] has as its target Glu122 (UniProt position 204, PNNTHEQHLRK).
Data set [52] deals with Glu129 (UniProt position 211, HLRKSEAQAKK).
The target in data set [53] is Glu135 (UniProt position 217, AQAKKEKLNIW).
Data set [54] concerns the target Glu142 (UniProt position 224, LNIWSEDNADS).
Data set [55] concerns the target Glu43 (UniProt position 125, LVDTPETKHPK).
Data set [56] has as its target Glu52 (UniProt position 134, PKKGVEKYGPE).
For data set [57], the target named is Glu57 (UniProt position 139, EKYGPEASAFT).
Data set [58] concerns the target Glu67 (UniProt position 149, TKKMVENAKKI).
In data set [59] the target is Glu73 (UniProt position 155, NAKKIEVEFDK).
Data set [60] deals with Glu75 (UniProt position 157, KKIEVEFDKGQ).
Data set [61] addresses His121 (UniProt position 203, KPNNTHEQHLR).
Data set [62] concerns the target His124 (UniProt position 206, NTHEQHLRKSE).
Data set [63] addresses His46 (UniProt position 128, TPETKHPKKGV).
The target in data set [64] is His8 (UniProt position 90, STKKLHKEPAT).

For “Escherichia coli thioredoxin 1 (EcTrx) (Escherichia coli)”, the pKa in data set [1] was 3.80; in data set [2], 7.50; in data set [3], 7.10; in data set [4], 9.90; in data set [5], 6.20; in data set [6] it was 7.40.

For the substance “Hen egg-white lysozyme (HEWL) (Gallus gallus)”, the pKa in data set [7] was 4.09; in data set [8], 3.20; in [9], 2.66; in data set [10], 1.60; in data set [11] it was 3.68; in data set [12] it was 0.90. The pKa in data set [13] is listed as 2.07; in data set [14], 2.75; in [15], 6.20; in data set [16], 2.85; in data set [17], 5.36; in [18], 10.90. Besides, the pKa is given as 10.40 in [19]; 10.60 in [20]; 10.60 in [21]; 10.80 in data set [22]; 10.30 in data set [23]; 7.90 in data set [24]. Also, the values for the pKa in data set [25], in [26] and in [27] were 10.30, 9.80 and 12.10, respectively.

Human thioredoxin (hTrx) (Homo sapiens): the pKa is given as 4.00 in [28]; 3.80 in [29]; 9.90 in data set [30]; 2.80 in data set [31]; 4.20 in data set [32]; 5.30 in data set [33]. In addition, the pKa in data set [34] is recorded as 3.20; in [35], 4.40; in data set [36], 4.40; in data set [37] it was 4.10; in data set [38] it was 3.10; in data set [39], 4.80. In addition, the pKa in data set [40] is recorded as 4.90; in data set [41], 4.60; in data set [42] it was 3.70; in data set [43] it was 4.10; in data set [44] it was 3.90.

For the substance “Staphylococcal nuclease (SNase) (Staphylococcus aureus)”, the pKa in [45] is 3.80; in data set [46] it was 3.86; in [47] it was 3.87; in data set [48], 2.16; in data set [49] it was 2.82; in [50], 3.81. Also, the pKa in data set [51] is 3.89; in data set [52] it was 3.75; in [53], 3.76; in data set [54] it was 4.49; in data set [55], 4.32; in data set [56], 3.93. For the same substance, the pKa in data set [57] was 3.49; in [58], 3.76; in data set [59], 3.31; in [60] it was 3.26; in data set [61], 5.30; in data set [62], 5.73. Moreover, the pKa in data set [63] is on record as 5.86; in data set [64] it was 6.52.

By pKa is commonly meant the negative logarithm of the acid dissociation constant.
